B1: Azoarcus group I ribozyme (parent)
chain: GUGCCUUGCGCCGGGAAACCACGCAAGGGAUGGUGUCAAAUUCGGCGAAACCUAAGCGCCCGCCCGGGCGUAUGGCAACGCCGAGCCAAGCUUCGGCGCCUGCGCCGAUGAAGGUGUAGAGACUAGACGGCACCCACCUAAGGCAAACGCUAUGGUGAAGGCAUAGUCCAGGGAGUGGCGAAAGUCACACAAACCGG

Variants of: B1
Assay: reverse-splicing fitness (ratio to wild type); higher = more active; in vitro selection; Mg2+ level not given
In short: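 An in vitro group I ribozyme library with randomized positions was T7-transcribed and gel-purified. In triplicate, 10 pmol RNA in EPPS pH 7.5 was reacted with 50 pmoles of a 30-nt RNA substrate for 1 h at 37 °C across several added MgCl2 levels (1–48 mM), then stopped with EDTA. Products were reverse transcribed from a substrate-complementary primer, PCR-amplified and sequenced (HiSeq 4000). Fitness is a variant's read proportion after selection over that before, normalised to wild type.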

Variant	reverse-splicing fitness
GUGCCUUGCGCCGGGAAACCACGCAAGGGAUGGUGUCAAAUUCGGCGAAACCUAAGCGCCCGCCCGGGCGUAUGGCAACGCCGAGCCAAGCUUCGGCGCCUGCGCCGAUGUAGGUGUAGCGACUAGACGGCACCCACCUAAGGCCAACGAUAUGGUGAAGGCAUAGUCCAGGGAGGGGCGAAAGUCACACAAACCGG [A111U A120C A145C C150A U176G]	0.00877
GUGCCUUGCGCCGGGAAACCACGCAAGGGAUGGUGUCAAAUUCGGCGAAACCUAAGCGCCCGCCCGGGCGUAUGGCAACGCCGAGCCAAGCUUCGGCGCCUGCGCCGAUGUAGGUGUAGCGACUAGACGGCACCCACCUAAGGCCAACGAUAUGGUGAAGGCAUAGUCCAGGGAGAGGCGAAAGUCACACAAACCGG [A111U A120C A145C C150A U176A]	0.0267
GUGCCUUGCGCCGGGAAACCACGCAAGGGAUGGUGUCAAAUUCGGCGAAACCUAAGCGCCCGCCCGGGCGUAUGGCAACGCCGAGCCAAGCUUCGGCGCCUGCGCCGAUGUAGGUGUAGCGACUAGACGGCACCCACCUAAGGCCAACGAUAUGGUGAAGGCAUAGUCCAGGGAGCGGCGAAAGUCACACAAACCGG [A111U A120C A145C C150A U176C]	0.0236
GUGCCUUGCGCCGGGAAACCACGCAAGGGAUGGUGUCAAAUUCGGCGAAACCUAAGCGCCCGCCCGGGCGUAUGGCAACGCCGAGCCAAGCUUCGGCGCCUGCGCCGAUGUAGGUGUAGCGACUAGACGGCACCCACCUAAGGCCAACGAUAUGGUGAAGGCAUAGUCUAGGGAGCGGCGAAAGUCACACAAACCGG [A111U A120C A145C C150A C169U U176C]	0.0123
GUGCCUUGCGCCGGGAAACCACGCAAGGGAUGGUGUCAAAUUCGGCGAAACCUAAGCGCCCGCCCGGGCGUAUGGCAACGCCGAGCCAAGCUUCGGCGCCUGCGCCGAUGUAGGUGUAGCGACUAGACGGCACCCACCUAAGGCCAACGAUAUGGUGAAGGCAUAGUCUAGGGAGGGGCGAAAGUCACACAAACCGG [A111U A120C A145C C150A C169U U176G]	0.00524
GUGCCUUGCGCCGGGAAACCACGCAAGGGAUGGUGUCAAAUUCGGCGAAACCUAAGCGCCCGCCCGGGCGUAUGGCAACGCCGAGCCAAGCUUCGGCGCCUGCGCCGAUGUAGGUGUAGCGACUAGACGGCACCCACCUAAGGCCAACGAUAUGGUGAAGGCAUAGUCUAGGGAGAGGCGAAAGUCACACAAACCGG [A111U A120C A145C C150A C169U U176A]	0.0169
GUGCCUUGCGCCGGGAAACCACGCAAGGGAUGGUGUCAAAUUCGGCGAAACCUAAGCGCCCGCCCGGGCGUAUGGCAACGCCGAGCCAAGCUUCGGCGCCUGCGCCGAUGUAGGUGUAGCGACUAGACGGCACCCACCUAAGGCCAACGAUAUGGUGAAGGCAUAGUCUAGGGAGUGGCGAAAGUCACACAAACCGG [A111U A120C A145C C150A C169U]	0.013
GUGCCUUGCGCCGGGAAACCACGCAAGGGAUGGUGUCAAAUUCGGCGAAACCUAAGCGCCCGCCCGGGCGUAUGGCAACGCCGAGCCAAGCUUCGGCGCCUGCGCCGAUGUAGGUGUAGCGACUAGACGGCACCCACCUAAGGCCAACGAUAUGGUGAAGGCAUAGUCGAGGGAGUGGCGAAAGUCACACAAACCGG [A111U A120C A145C C150A C169G]	0.00677
GUGCCUUGCGCCGGGAAACCACGCAAGGGAUGGUGUCAAAUUCGGCGAAACCUAAGCGCCCGCCCGGGCGUAUGGCAACGCCGAGCCAAGCUUCGGCGCCUGCGCCGAUGUAGGUGUAGCGACUAGACGGCACCCACCUAAGGCCAACGAUAUGGUGAAGGCAUAGUCAAGGGAGCGGCGAAAGUCACACAAACCGG [A111U A120C A145C C150A C169A U176C]	0.00583
GUGCCUUGCGCCGGGAAACCACGCAAGGGAUGGUGUCAAAUUCGGCGAAACCUAAGCGCCCGCCCGGGCGUAUGGCAACGCCGAGCCAAGCUUCGGCGCCUGCGCCGAUGUAGGUGUAGCGACUAGACGGCACCCACCUAAGGCCAACGAUAUGGUGAAGGCAUAGUCAAGGGAGGGGCGAAAGUCACACAAACCGG [A111U A120C A145C C150A C169A U176G]	0.00536
GUGCCUUGCGCCGGGAAACCACGCAAGGGAUGGUGUCAAAUUCGGCGAAACCUAAGCGCCCGCCCGGGCGUAUGGCAACGCCGAGCCAAGCUUCGGCGCCUGCGCCGAUGUAGGUGUAGCGACUAGACGGCACCCACCUAAGGCCAACGAUAUGGUGAAGGCAUAGUCGAGGGAGCGGCGAAAGUCACACAAACCGG [A111U A120C A145C C150A C169G U176C]	0.00889
GUGCCUUGCGCCGGGAAACCACGCAAGGGAUGGUGUCAAAUUCGGCGAAACCUAAGCGCCCGCCCGGGCGUAUGGCAACGCCGAGCCAAGCUUCGGCGCCUGCGCCGAUGUAGGUGUAGCGACUAGACGGCACCCACCUAAGGCCAACGAUAUGGUGAAGGCAUAGUCGAGGGAGGGGCGAAAGUCACACAAACCGG [A111U A120C A145C C150A C169G U176G]	0.00536
GUGCCUUGCGCCGGGAAACCACGCAAGGGAUGGUGUCAAAUUCGGCGAAACCUAAGCGCCCGCCCGGGCGUAUGGCAACGCCGAGCCAAGCUUCGGCGCCUGCGCCGAUGUAGGUGUAGCGACUAGACGGCACCCACCUAAGGCCAACGAUAUGGUGAAGGCAUAGUCGAGGGAGAGGCGAAAGUCACACAAACCGG [A111U A120C A145C C150A C169G U176A]	0.0194
GUGCCUUGCGCCGGGAAACCACGCAAGGGAUGGUGUCAAAUUCGGCGAAACCUAAGCGCCCGCCCGGGCGUAUGGCAACGCCGAGCCAAGCUUCGGCGCCUGCGCCGAUGUAGGUGUAGCGACUAGACGGCACCCACCUAAGGCCAACGGUAUGGUGAAGGCAUAGUCAAGGGAGAGGCGAAAGUCACACAAACCGG [A111U A120C A145C C150G C169A U176A]	0.00803
GUGCCUUGCGCCGGGAAACCACGCAAGGGAUGGUGUCAAAUUCGGCGAAACCUAAGCGCCCGCCCGGGCGUAUGGCAACGCCGAGCCAAGCUUCGGCGCCUGCGCCGAUGUAGGUGUAGCGACUAGACGGCACCCACCUAAGGCCAACGGUAUGGUGAAGGCAUAGUCAAGGGAGGGGCGAAAGUCACACAAACCGG [A111U A120C A145C C150G C169A U176G]	0.00509
